The record followed here is patent publication US12157773 (SYNTHEKINE, dated 2024).

T1: hIL27Rα ECD antigen (human, UniProt Q6UWB1 33-516)
T1 construct: Antigen of biopanning and PE-ELISA; also called ECD of the human IL27Rα; IL27Rα coated on the plate
T1 sequence: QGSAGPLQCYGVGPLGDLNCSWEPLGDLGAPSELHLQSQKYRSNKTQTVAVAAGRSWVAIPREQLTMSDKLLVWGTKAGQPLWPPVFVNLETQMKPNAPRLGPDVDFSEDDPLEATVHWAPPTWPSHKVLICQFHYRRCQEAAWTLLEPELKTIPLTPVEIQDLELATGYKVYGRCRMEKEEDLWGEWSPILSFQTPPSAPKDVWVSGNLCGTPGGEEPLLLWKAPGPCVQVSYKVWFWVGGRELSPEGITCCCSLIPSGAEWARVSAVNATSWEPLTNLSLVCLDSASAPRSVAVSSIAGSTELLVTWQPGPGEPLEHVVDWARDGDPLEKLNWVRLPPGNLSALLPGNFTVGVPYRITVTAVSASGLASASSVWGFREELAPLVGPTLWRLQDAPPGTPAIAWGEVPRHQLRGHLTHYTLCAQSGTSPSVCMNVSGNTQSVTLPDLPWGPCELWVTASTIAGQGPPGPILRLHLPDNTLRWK

T2: mIL27Rα ECD antigen (mouse, UniProt O70394 25-510)
T2 construct: Antigen of biopanning and PE-ELISA; The immunogen was made as a fusion of the ECD (residues 25-510 of the precursor) with the human IgG1 hinge and Fc; also called ECD of mouse IL27Rα; IL27Rα coated on the plate
T2 sequence: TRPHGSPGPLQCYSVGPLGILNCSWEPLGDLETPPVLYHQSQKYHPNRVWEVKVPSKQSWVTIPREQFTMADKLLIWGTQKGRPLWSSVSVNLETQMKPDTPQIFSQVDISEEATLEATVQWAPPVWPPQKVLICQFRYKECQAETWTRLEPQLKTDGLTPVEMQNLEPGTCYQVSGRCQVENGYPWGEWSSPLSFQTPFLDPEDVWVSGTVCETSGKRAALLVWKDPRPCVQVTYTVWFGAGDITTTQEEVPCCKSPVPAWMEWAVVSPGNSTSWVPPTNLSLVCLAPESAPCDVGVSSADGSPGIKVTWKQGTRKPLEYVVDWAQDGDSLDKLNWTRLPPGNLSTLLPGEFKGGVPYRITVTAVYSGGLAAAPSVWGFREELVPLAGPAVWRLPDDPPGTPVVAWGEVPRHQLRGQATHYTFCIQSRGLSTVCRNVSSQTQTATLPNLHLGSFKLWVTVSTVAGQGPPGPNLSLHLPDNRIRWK

B1: hIL27Ra VHH17 (VHH)
VHH: QVQLQESGGGLVQPGGSLRLSCAASGFTFSLSGMSWVRQAPGKGLEWVSAISSGGASTYYTDSVKGRFTISRDNAKNMLYLQLNSLKTEDTAMYYCAKGGSGYGDASRMTSPGSQGTQVTVSS
notes: Camel VHH as periplasmic extract of a phage clone in the PE-ELISA; also called anti-human IL27Rα VHH; not shown: HA/His tag from the pMECS phagemid
B2: hIL27Ra VHH2 (VHH)
VHH: B1 VHH with M78I
notes: as for B1
B3: hIL27Ra VHH24 (VHH)
VHH: B1 VHH with L31H, A50T, S52N
notes: as for B1
B4: hIL27Ra VHH14 (VHH)
VHH: QVQLQESGGGSVQAGGSLRLSCVASGYVSCDYFLPSWYRQAPGKEREFVSIIDGTGSTSYAASVKGRFTASQDKGKNIAYLQMNSLKPEDTAMYYCKASCVRGRAISEYWGQGTQVTVSS
notes: as for B1
B5: hIL27Ra VHH13 (VHH)
VHH: B4 VHH with K74R, A105T
notes: as for B1
B6: hIL27Ra VHH3 (VHH)
VHH: B4 VHH with Q72E, I106V
notes: as for B1
B7: hIL27Ra VHH5 (VHH)
VHH: B4 VHH with V23T, I51V
notes: as for B1
B8: hIL27Ra VHH18 (VHH)
VHH: B4 VHH with A105G
notes: as for B1
B9: hIL27Ra VHH7 (VHH)
VHH: QVQLQESGGGLVQPGGSLRLSCAASGFTFSSYPMSWVRQAPGKGLEWISTISAGGDTTLYADSVKGRFTSSRDNAKNTLYLQLNSLKTEDTAIYYCAKRIDCNSGYCYRRNYWGQGTQVTVSS
notes: as for B1
B10: hIL27Ra VHH8 (VHH)
VHH: B9 VHH with L11S, P14V
notes: as for B1
B11: hIL27Ra VHH20 (VHH)
VHH: B9 VHH with I48V, A53S, I93M, R109K, N111S
notes: as for B1
B12: hIL27Ra VHH6 (VHH)
VHH: QVQLQESGGGLVQPGGSLRLSCAASGFSFSSYAMKWVRQAPGKGLEWVSTISSGGSSTNYADSVKGRFTISRDNAKNTLYLQLNSLKIEDTAMYYCAKAIVPTGATMERGQGTQVTVSS
notes: as for B1
B13: hIL27Ra VHH4 (VHH)
VHH: QVQLQESGGGLVQPGESLRLSCTASGFTFSNYAMSWVRQAPGKGLEWVSGINVAYGITSYADSVKGRFTISRDNTKNTLYLQLNSLKTEDTAIYYCVKHSGTTIPRGFISYTKRGQGTQVTVSS
notes: as for B1
B14: hIL27Ra VHH10 (VHH)
VHH: QVQLQESGGGSVQAGGSLRLSCRASGSTYSNYCLGWFRQITGKEREGVAVINWVGGMLYFADSVKGRFTVSQDQAKNTLYLQMNSLKPEDTAMYYCAAESVSSFSCGGWLTRPDRVPYWGQGTQVTVSS
notes: as for B1
B15: hIL27Ra VHH11 (VHH)
VHH: B14 VHH with I40S, Q74H, L79V, Y80T, D114G
notes: as for B1
B16: hIL27Ra VHH23 (VHH)
VHH: B14 VHH with G26R, T28P, S30G, I40S, Q74H, L79V, Y80T
notes: as for B1
B17: hIL27Ra VHH16 (VHH)
VHH: B14 VHH with L79V, V101A
notes: as for B1
B18: hIL27Ra VHH22 (VHH)
VHH: B14 VHH with I40T, L79V
notes: as for B1
B19: hIL27Ra VHH12 (VHH)
VHH: B14 VHH with G16E, L79V, Q82E, A98T
notes: as for B1
B20: mIL27Ra VHH13 (VHH)
VHH: QVQLQESGGGSVQAGGSLRLSCAASGYSINRMGWFRQAPGKEREGVAAISIGGGRTYYADSVKGRFTISQDNAKNTVDLQMNSLKPEDTAMYYCAAGLVYGEAWLDSRHYNKWGQGTQVTVSS
notes: Camel VHH as periplasmic extract of a phage clone in the PE-ELISA; also called anti-mouse IL27Rα VHH; not shown: HA/His tag from the pMECS phagemid
B21: mIL27Ra VHH12 (VHH)
VHH: B20 VHH with A14T, G33A, G54D, N75H
notes: as for B20
B22: mIL27Ra VHH4 (VHH)
VHH: B20 VHH with R55Q
notes: as for B20
B23: mIL27Ra VHH5 (VHH)
VHH: QVQLQESGGGSVQAGGSLRLSCAVSGDSTYSMGWFRQPPGKEREGVAAIAKDGITIHADSVKGRFTISKDNAKNTLYLQMNSLKPEDTAMYYCAAHRPYGPPLNPRWYTYWGQGTQVTVSS
notes: as for B20
B24: mIL27Ra VHH9 (VHH)
VHH: B23 VHH with N81S
notes: as for B20
B25: mIL27Ra VHH10 (VHH)
VHH: B23 VHH with A50G
notes: as for B20
B26: mIL27Ra VHH8 (VHH)
VHH: B23 VHH with A50P, K51T
notes: as for B20
B27: mIL27Ra VHH14 (VHH)
VHH: B23 VHH with A50T, K69G, S82N
notes: as for B20
B28: mIL27Ra VHH1 (VHH)
VHH: QVQLQESGGGSVQAGGSLRLSCAASKNSNFMGWFRQAPGKEREGVAAMMTKNNNTYYADSVKGRFTISHDNAKNTVYLQMDSLKPEDTAVYYCAAVYRTRRLRVLEAANFDYWGQGTQVTVSS
notes: as for B20
B29: mIL27Ra VHH7 (VHH)
VHH: QVQLQESGGGSVQAGGSLRLSCAVSGDSTYSMGWFRQPPGKEREGVAAITKDITIHADSVKGRFTISKDNAKNTLYLQMNSLKPEDTAMYYCAAHRPYGPPLNPRWYTYWGQGTQVTVSS
notes: as for B20
B30: mIL27Ra VHH11 (VHH)
VHH: B29 VHH with K83R
notes: as for B20
B31: mIL27Ra VHH6 (VHH)
VHH: QVQLQESGGGSVQAGGSLRLSCAASGYTYSSYCMAWFRQAPGKEREGVAAIDSDGSTSYADSVKGRFTISKDNAKNTLYLQMNSLKPEDTAMYYCAAASGRCLGPGIRSLIWGQGTQVTVSS
notes: as for B20
B32: mIL27Ra VHH3 (VHH)
VHH: QVQLQESGGGSVQAGGSLRLSCAGSGYSLSNYCMGWFRQAPGQGREGVASLRFVSGATFYADSVKGRFTIAQDNAKNTLYLQMNSLKPEDTAMYYCGIKSRGICGGRLVDVDFGNWGQGTQVTVSS
notes: as for B20
B33: mIL27Ra VHH2 (VHH)
VHH: QVQLQESGGGSVQAGGSLRLSCTASGYTSSRYCMGWFRQTPGKKREGVAAIYTGGGTTFYHGSVKGRFTISQDNTTNTVYLQMHNLKPEDTAMYYCAAGPVTRACDEYNYWGQGTQVTVSS
notes: as for B20

Positions count from the first letter of the chain named.

The target in one experiment is T1, hIL27Rα ECD antigen. The experiment in a line: PE-ELISA, periplasmic extract on antigen-coated plate. As for the experimental part:
(§1) Upon completion of the biopanning of Example 3, three 96-well plates of individual phage clones were isolated in order to perform periplasmic extract ELISA (PE-ELISA) on IL27Rα coated plates to identify positive VHH binders that selectively bound […]. A 96-well plate was coated with IL27Rα and PBS under the same conditions. Next, wells were blocked at 37° C. for 1 h. Then, 100 µl of extracted antibodies was added to each well and incubated for 1 h. Subsequently, 100 µl of anti-tag polyclonal antibody conjugated to HRP was added to each well and incubated at 37° C. for 1 h. Plates were developed with TMB substrate. The reaction was stopped by the addition of H2SO4. Absorbance at 450 nm was read on a microtiter plate reader. […] Positive clones were sequenced, and sequences analyzed to identify unique clonotypes.
In general terms: In an ELISA, binding on a coated surface is turned into a signal by an enzyme label.
In the case of B1, the binding result is recorded as “binds”.

Consider B2, for which the binding result was “binds”.

With B3, the binding result was “binds”.

Consider B4, for which the binding result is recorded as “binds”.

For the molecule B5, the binding result is “binds”.

As to B6, the binding result is given as “binds”.

For B7, the binding result is recorded as “binds”.

Consider B8, for which the binding result is “binds”.

B9: the binding result is given as “binds”.

B10: the binding result was “binds”.

For the molecule B11, the binding result is listed as “binds”.

For B12, the binding result is recorded as “binds”.

On to B13, for which the binding result is given as “binds”.

B14: the binding result was “binds”.

Turning to B15, the binding result is given as “binds”.

Regarding B16, the binding result is recorded as “binds”.

As to B17, the binding result is reported as “binds”.

B18: the binding result is reported as “binds”.

On to B19, for which the binding result was “binds”.

In the next experiment the target is T2, mIL27Rα ECD antigen. The experiment is described as above. As for the experimental part: as §1
Consider B20, for which the binding result is recorded as “binds”.

With B21, the binding result is reported as “binds”.

Take B22: the binding result is reported as “binds”.

For the molecule B23, the binding result is listed as “binds”.

Turning to B24, the binding result was “binds”.

As for B25, the binding result was “binds”.

Turning to B26, the binding result was “binds”.

Consider B27, for which the binding result is recorded as “binds”.

As for B28, the binding result was “binds”.

With B29, the binding result is “binds”.

Turning to B30, the binding result was “binds”.

In the case of B31, the binding result is “binds”.

For B32, the binding result is “binds”.

In the case of B33, the binding result is reported as “binds”.
